Test in all cases: purified protein
Substrate in data set [1]: CC(C)=CCNc1ncnc2c1ncn2[C@@H]1O[C@H](CO)[C@@H](O)[C@H]1O
As to conditions: ATP 1 mM, 37 °C, HEPES, NaCl, MgCl2, CaCl2.

Substrate in data set [2]: CN(C)c1ncnc2c1ncn2[C@@H]1O[C@H](CO)[C@@H](O)[C@H]1O
As to conditions: ATP 1 mM, 37 °C, HEPES, NaCl, MgCl2, CaCl2.

Substrate in data set [3]: CNc1ncnc2c1ncn2[C@@H]1O[C@H](CO)[C@@H](O)[C@H]1O
As to conditions: ATP 1 mM, 37 °C, HEPES, NaCl, MgCl2, CaCl2.

Substrate in data set [4]: CC(C)=CCNc1ncnc2c1ncn2[C@@H]1O[C@H](COP(=O)(O)O)[C@@H](O)[C@H]1O
As to conditions: 37 °C, HEPES, NaCl, MgCl2, 2-mercaptoethanol.

Substrate in data set [5]: CN(C)c1ncnc2c1ncn2[C@@H]1O[C@H](COP(=O)(O)O)[C@@H](O)[C@H]1O
As to conditions: 37 °C, HEPES, NaCl, MgCl2, 2-mercaptoethanol.

Substrate in data set [6]: CNc1ncnc2c1ncn2[C@@H]1O[C@H](COP(=O)(O)O)[C@@H](O)[C@H]1O
As to conditions: 37 °C, HEPES, NaCl, MgCl2, 2-mercaptoethanol.

B1: ADK (human adenosine kinase) (Homo sapiens) (protein)
chain: MTSVRENILFGMGNPLLDISAVVDKDFLDKYSLKPNDQILAEDKHKELFDELVKKFKVEYHAGGSTQNSIKVAQWMIQQPHKAATFFGCIGIDKFGEILKRKAAEAHVDAHYYEQNEQPTGTCAACITGDNRSLIANLAAANCYKKEKHLDLEKNWMLVEKARVCYIAGFFLTVSPESVLKVAHHASENNRIFTLNLSAPFISQFYKESLMKVMPYVDILFGNETEAATFAREQGFETKDIKEIAKKTQALPKMNSKRQRIVIFTQGRDDTIMATESEVTAFAVLDQDQKEIIDTNGAGDAFVGGFLSQLVSDKPLTECIRAGHYAASIIIRRTGCTFPEKPDFH
In the case of B1, the Km in “purified protein [1]” is 10 ± 1.0 µM; in the data set “purified protein [2]” it was 6.1 ± 0.31 µM; in “purified protein [3]”, 15 ± 1.8 µM. The results for the kcat in the data set “purified protein [1]”, in “purified protein [2]” and in “purified protein [3]” were 0.18 ± 0.018 s⁻¹, 0.27 ± 0.0024 s⁻¹ and 0.28 ± 0.0063 s⁻¹, respectively.

B2: ADAL (hADAL, adenosine deaminase-like) (Homo sapiens) (protein)
chain: MIEAEEQQPCKTDFYSELPKVELHAHLNGSISSHTMKKLIAQKPDLKIHDQMTVIDKGKKRTLEECFQMFQTIHQLTSSPEDILMVTKDVIKEFADDGVKYLELRSTPRRENATGMTKKTYVESILEGIKQSKQENLDIDVRYLIAVDRRGGPLVAKETVKLAEEFFLSTEGTVLGLDLSGDPTVGQAKDFLEPLLEAKKAGLKLALHLSEIPNQKKETQILLDLLPDRIGHGTFLNSGEGGSLDLVDFVRQHRIPLELCLTSNVKSQTVPSYDQHHFGFWYSIAHPSVICTDDKGVFATHLSQEYQLAAETFNLTQSQVWDLSYESINYIFASDSTRSELRKKWNHLKPRVLHI
In the case of B2, the Km in the data set “purified protein [4]” is given as 35 ± 1.4 µM; in “purified protein [5]” it was 65 ± 1.7 µM; in the data set “purified protein [6]”, 47 ± 1.1 µM. The kcat in the data set “purified protein [4]” worked out at 1.9 ± 0.066 s⁻¹; in the data set “purified protein [5]”, 2.6 ± 0.036 s⁻¹; in the data set “purified protein [6]”, 2.4 ± 0.068 s⁻¹.

(Values after paper doi:10.1101/2024.05.23.595515v1.)
